Laboratory results published in the nanobody polyreactivity screen of Harvey et al. (2022).

Experiment: yeast display, Sf9 membrane polyspecificity reagent, FACS + sequencing; frameworks hold sequencing errors
How it was run: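 In a synthetic yeast display library (Saccharomyces cerevisiae BJ5465), nanobody expression was induced with galactose for 36–48 hours. FACS gates were set low and high (top ~1%) using anti-HA fluorescence for expression and streptavidin fluorescence for binding of the Sf9 membrane reagent. Each polyreactivity label is drawn from the gate of origin.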

Row | Sequence | polyreactivity (PSR sort gate)
1 | QVQLVESGGGLVQAGGSLRLSCAASGSIFEENAMGWYRQAPGKERELVAAITIGGRTNYADSVKGRFTISRDNAKNTVYLQMNSLKPEDTAVYYCAADLSSNKFWRFWTRYYYWGQGTQVTVSS | low polyreactivity
2 | QVQLVESGGGLVQAGGSLRLSCAASGRTFQDNVMGWYRQAPGKETELVAAINTSSGSTYYADSVKGRFTISRDNAKNTVYLQMNSLKPEDTAVYYCFSYDYDYWGQGTQVTVSS | low polyreactivity
3 | QVQLVESGGGLVQAGGSLRLSCAASGGIFHHYAMGWSRPAPGKERELVAGISWRGTSTYYADSVKGRFTISRDNAKNTVYLQMNSLKPEDTAVYYCARVYPYSVGYNSGHPASYDYWGQGTQVTVSS | high polyreactivity
4 | QVQLVESGGGLVQAGGSLRLSCAASGSIFIQYAMGWYRQAPGKERELVAAITSGGGSTYYADSVKGRFTISRDNAKNTVYLQMNSLKPEDTAVYYCAVDRTRRPAVPYVTLDRGYCGQGTQVTVSS | low polyreactivity
5 | QVQLVESGGGLVQAGGSLRLSCAASGLTLGDNPMGWYRQAPGKERELVAAITSGGVNTYYADSVKGRFTISRDNAKNTVYLQMNSLKPEDTAVYYCAVPNRVYSQQYKFSVRYYYWGQGTQVTVSS | low polyreactivity
6 | QVQLVESGGGLVQAGGSLRLSCTASGIIFGTFAMGWYRQAPGKERELVAAISSSGVSTYYADSVKGRFTISRDNAKNTVYLQMNSLKPEDTAVYYCAAPLHYGYYYWGQGTQVTVSS | high polyreactivity
7 | QVQLVESGGGLVQAGGSLRLSCAASGIIFSQYAMGWYRQAPGKERELVASISRSGGITYYADSVKGRFTISRDNAKNTVYLQMNSLKPEDTAVYYCNAAKACREQWTSFDYWGQGTQVTVSS | high polyreactivity
8 | QVQLVESGGGLVQAGCSLRLSCAASGRIFSYNAMGWYRPAPAKERELVAAISSDGSTYYADSVKGRFTISRDNAKNTVYLQMNSLKPEDTAVYYCAAYPRVNGNILSTGDYWGQGTQVTVSS | low polyreactivity
9 | QVQLVESGAGLVQAGGSLRLSCAASGSIFKYNTMGWYRQAPGKERELVATISGGGRTYYADSVKGRFTISRDNAKNTVYLQMNSLKPEDTAVYYCAARKRGTFTYDYWGQGTQVTVSS | high polyreactivity
10 | QVQLVESGGGLVQAGGSLRLICAASGSTFVPYTMAWYRQAPGKERELVAAISGSGGTDYADSVKGRFTISRDNGKNTVYLQMNSLKPEDTAVYYCAAYSRVVPSFYYWGQGTQVTVSS | low polyreactivity
11 | QVQLVESGGGLVQAGGSLRLSCAASGIIFEYYAMGWYRQAPGKERELVAAITRGGSTYYADSVKGRFTISRDNAKNTVYLQMNSLKPEDTAVYYCAADRYYYEYEYWGQGTQVTVSS | low polyreactivity
12 | QVQLVESGGGLVQAGGSLRLSCAASGRTFRYYAMGWYRQAPAKERELVAAINWNGGRTYYADSVKGRFTISRDNAKNTVYLQMNSLKPEDTAVYYCAAYHYRSPVTGDYWGQGTQVTVSS | high polyreactivity
13 | QVQLVESGGGLVQAGGSLRLSCAASGRIFWVNVMGWSRQAPGKERELVAAITRGASTYADSVKGRFTISRDNAKNTVYLQMNSLKPEDTAVYYCAADTKRRSIRYDYWGQGTQVTVSS | high polyreactivity
14 | QVQLVESGGGLVQAGGSLRLSCASSGRTFRPYAKGWYRPAPGKDRELVAAITGGTRTYYADSVKGRFTISRDNAKNTVYLQMNSLKPEDTAGYYCAKGDFFSKHDYWGQGTQVTVSS | low polyreactivity
15 | QVQLVESGGGLVQAGGSLRLSCAAYGIIFYLYAMGWYRTAPGKERELVAAITWNGGRTYYADSVKGRFTISRDNAKNTVYLQMNSLKPEDTAVYYCNTDRRWRGTYTTRYDYWGQGTQVTVSS | low polyreactivity
16 | QVQLVESGGGLVQAGGSLRLSCAASGSIFVGYAMGWYRQAPGKERELVASINYSGGTTDYADSVKGRFTISRDNAKNTVYLQMNSLKPEDTAVYYCAKTAVDWSFTKGVDYDYWGQGTQVTVSS | low polyreactivity

Row | Sequence | polyreactivity (PSR sort gate)
17 | QVQLVESGGRLGQAGGSLRLRCAASGYNFGTYDMGWYRPAPGKERELVAAISIGGSTNYADSVKGRFTISRDNAKNTVYLQMNSLKPEDTAVYYCAAEVNVGTLLLSVIVEDGDYWGQGTEVTVSS | low polyreactivity
18 | QVQLVESGGGLVQAGGSLRLSCAASGFTFGSNAMGWYRQAPGKERELVATISRRGGRTYYADSVKGRFTISRDNAKNTVYLQMNSLKPEDTAVYYCAADRSRPGYDYWGQGTQVTVSS | high polyreactivity
19 | QVQLVESGGGLVQAGGSLRLSCAASGFTFRVYVMGWYREAPGKERELVAGITRTGRTYYADSVKGRFTISRDNAKNTVYLQMNSLKPEDTAVYYCAATRPYSHRDYYYWGQGTQVTVSS | high polyreactivity
20 | QVQLVESGGGLVQAGGSLRLSCAASGSIFRPYAMGWYRQAPGKERELVAAISSSSGRTYYADSVKGRFTISRDNAKNTVYLQMNSLKPEDTAVYYCAADRYSFRGDYYWGQGTQVTVSS | low polyreactivity
21 | QVQLVESGGGLVQAGGSLSLSSAATGSNFGRNAMGWYRQATGKEREFVAAISQRGGRTYYSDSVKGRFTISRDNAKNTVYLQMNSLKPEETAVYYCAATYTRVPNRFYYWGQGTQVTVSS | high polyreactivity
22 | QVHIVESGGGLVQAGGSLRISCAASGRILLLYDMGWYRQAPGKERELVAAINWDGGYSYADSVKGRFTISRDNANNTVFLQMNSLKPADTAVYYCAKDDIWEHYDYWGQGTQVTVSS | low polyreactivity
23 | QVQLVESGGGLVQAGGSLRLSCAASGLTFYQYAMGWYRQATGKETELVAAITSAGITYADSVKGRFTISRDNAKNTVYLQMNSLKPEDTAVYYCAKDDYFSYGYVEFDYWGQGTQVTVSS | low polyreactivity
24 | QVQLVESGGGLVQAGGNLRLICDASGSIFLYNTMGWYRHAPGQERELVAAITYSGGSTYYADSVKGRFTISRDNAKNTVYLQMNSLNPEDTAVYYCNARHYSAFYSWGQGTQVTVSS | high polyreactivity
25 | QVQLVESGGGLVQAGGSLRLSCAASGSTLVNNAMGWDRQAPGKEREWVAAITFSGGTTYYADSVKGRFTISRDNAKNTVYLQMNSLKPEDTAVYYCAAEIWLEYVGYDYWGQGTQVTVSS | high polyreactivity
26 | QVQLVESGGGLVQAGGSLRLSCADSGSTFNIYAMGWYRQAPGKERELVAAISSGGTTYYADSVKGRFTISRDNAKNTVYLQMNSLKPEDTAVYYCAALTSSLPAYGYWGQGTQVTVSS | low polyreactivity
27 | QVQLVESGGGLVQAGGSLRLSCAASGRIFGSYVMGWYRQAPGKERELVAAITDGGTTFYADSVKGRFTISRDNAKNTVYLPMNSLKPEDTAVYYCAARQAGYSGRKLYYWGQGTQVTVSS | low polyreactivity
28 | QVQLQESGGGLVQVGGSLRLSCAASGTIFIYGFLGWNRQAPGKERELVASINLGGITNYADSVKGRFTISRDNAKNTVYLQMISLKPEDTAVYYCAAYVVTGQNYGYWGQGTQVTVSC | low polyreactivity
29 | QVQLVESGGGLVQAGGSLRLSCAASGSTYATYAMGWYRQAPGKERELVAVITRGGRTYYADSVKGRFTISRDNAKNTVYLQMNSLKPEDTAVYYCAARTLWYVIFTLHDYNYWGQGTQVTVSS | high polyreactivity
30 | QVQLVESCGGLVQAGGSLRLSCAASGIIFSVNAMGWSRQAPGKERELVAAITIGGSTYYADSVKGRFTISRDNAKNTVYLQMNSLKPEDTAVYYCAADEYGPHTFSPESDSWGQGTQVTVSS | low polyreactivity
31 | QVQLVESGGGLVQAGGSLRLSCAASGSIFGINAMGWYRQAPGKERELVAAISYSGGSTYYADTVKGRFTISRDNAKNTVYLQMNSLKPEDTAVYYCARRGKHVAGRYYYWGQVTQVTVSS | high polyreactivity
32 | QVQLVESGGGLVQAGGSLRLSCAASGSIFYFYTMGWYRQAPGKEREFVAAINGIGGSTYYADSVKGRFTISRDNAKNTVYLQMNSLKPEDTAVYYCAADAPWFKRNARKYNFWGQGTQVTVSS | low polyreactivity
